Earlier results as cited in article PMC10178616.

Target: AGR2 (Homo sapiens) (UniProt O95994)

In the case of AGR2 (from UniProt O95994), the Kd is given as 8.83 µM.
